Earlier results on one substance are cited in PMC12017986.

Read-outs that look alike come from different tables or passages of the source.

Data set [1] concerns the target Swallow (Drosophila melanogaster) (UniProt P40688).
In data set [2] the target is Dynein intermediate chain (IC) (Drosophila melanogaster) (UniProt Q24246).
The target is the same in data set [3]. The source holds these as a separate data set.

Sequence of UniProt Q24246 (Q24246 whole entry): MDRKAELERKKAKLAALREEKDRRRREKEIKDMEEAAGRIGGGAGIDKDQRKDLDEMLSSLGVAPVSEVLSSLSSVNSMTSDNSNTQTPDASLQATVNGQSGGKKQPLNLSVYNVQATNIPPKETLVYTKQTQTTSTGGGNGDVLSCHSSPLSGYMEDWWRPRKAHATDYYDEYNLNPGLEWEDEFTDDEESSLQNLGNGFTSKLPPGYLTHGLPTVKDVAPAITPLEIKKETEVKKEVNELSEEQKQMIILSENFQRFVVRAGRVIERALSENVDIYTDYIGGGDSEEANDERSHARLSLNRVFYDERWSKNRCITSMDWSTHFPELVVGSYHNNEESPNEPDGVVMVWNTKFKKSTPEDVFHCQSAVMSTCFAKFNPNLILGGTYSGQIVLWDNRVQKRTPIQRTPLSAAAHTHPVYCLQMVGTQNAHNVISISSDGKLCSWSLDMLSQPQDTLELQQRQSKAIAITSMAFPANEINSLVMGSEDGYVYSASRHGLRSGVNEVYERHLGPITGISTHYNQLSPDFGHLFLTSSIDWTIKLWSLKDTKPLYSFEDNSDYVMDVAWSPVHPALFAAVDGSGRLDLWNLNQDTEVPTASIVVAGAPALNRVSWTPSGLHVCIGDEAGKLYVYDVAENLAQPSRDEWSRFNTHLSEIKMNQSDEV
Sequence of UniProt P40688 (P40688 whole entry): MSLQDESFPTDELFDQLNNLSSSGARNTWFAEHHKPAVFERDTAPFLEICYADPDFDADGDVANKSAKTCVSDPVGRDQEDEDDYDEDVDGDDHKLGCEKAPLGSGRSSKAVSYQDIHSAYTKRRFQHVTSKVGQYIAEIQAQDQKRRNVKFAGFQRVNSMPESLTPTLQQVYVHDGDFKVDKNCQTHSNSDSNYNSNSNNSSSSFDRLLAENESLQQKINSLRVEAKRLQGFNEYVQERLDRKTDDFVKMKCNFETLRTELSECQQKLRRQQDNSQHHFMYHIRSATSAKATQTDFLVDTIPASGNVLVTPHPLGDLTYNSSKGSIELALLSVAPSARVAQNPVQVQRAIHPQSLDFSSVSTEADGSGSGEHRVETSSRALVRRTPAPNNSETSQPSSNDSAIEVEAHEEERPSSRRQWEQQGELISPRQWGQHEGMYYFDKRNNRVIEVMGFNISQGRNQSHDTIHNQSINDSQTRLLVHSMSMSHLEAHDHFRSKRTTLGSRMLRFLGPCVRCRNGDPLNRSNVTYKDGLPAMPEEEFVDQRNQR

As for LC8 (from UniProt Q24117), the Kd is 200 nM in data set [1], 8000 nM in data set [2] and 130 nM in data set [3].
